Measured values published in paper PMC3448026.

What was measured:
[1] = substrate: O=C(O)C(=O)/C=C1/C=C[C@H](O)CC1; test: purified protein; type: biochemical, Bacillus subtilis; details: 2 mM NADH (saturating), 50 mM potassium phosphate pH 8.0, 5 µM BacG
[2] = substrate: O=C(O)C(=O)/C=C1\C=C[C@H](O)CC1; test: purified protein; type: biochemical, Bacillus subtilis; details: 2 mM NADH (saturating), 50 mM potassium phosphate pH 8.0, 1 µM BacG

B1: BacG (Bacillus subtilis subsp. subtilis str. 168) (protein)
chain: MSKRTAFVMGASQGIGKAIALKLADQHFSLVINSRNLDNIESVKEDILAKHPEASVIVLAGDMSDQHTRAGIFQKIESQCGRLDVLINNIPGGAPDTFDNCNIEDMTATFTQKTVAYIDAIKRASSLMKQNEFGRIINIVGNLWKEPGANMFTNSMMNAALINASKNISIQLAPHNITVNCLNPGFIATDRYHQFVENVMKKNSISKQKAEEQIASGIPMKRVGSAEETAALAAFLASEEASYITGQQISADGGSMKSI
kcat [1]: 0.553 s⁻¹
kcat [2]: 1.19 s⁻¹
